Experimental data reported in patent publication US20250215412A1 (NOVOZYMES A S, published 2025).

T1: Chryseobacterium sp-62563 deamidase polypeptide (second polypeptide, deamidase domain), wildtype (Chryseobacterium sp-62563)
T1 sequence: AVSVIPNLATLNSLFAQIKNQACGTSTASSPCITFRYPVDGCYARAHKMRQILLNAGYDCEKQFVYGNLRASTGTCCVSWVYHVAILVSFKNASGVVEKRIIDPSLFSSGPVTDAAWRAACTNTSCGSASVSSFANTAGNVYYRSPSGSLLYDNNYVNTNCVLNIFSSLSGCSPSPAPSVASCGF


Target: T1, Chryseobacterium sp-62563 deamidase polypeptide (second polypeptide, deamidase domain), wildtype (Chryseobacterium sp-62563)
Assay: cell-based or functional assay

Row | Binder | Relative activity of maturated deamidase (% initial rate)
1 | Chryseobacterium sp-62563 propeptide M39N (protein) NQDPNLVAKESNETAMKDFGKTVPVGIEKEDGKFKISFNVTAQPYEIKDSKENAAYISMIKTAVENETPIHVFLKANTNEIAKVDKATDDDIRYFKSVFTKEVKEENRK | 39
2 | Chryseobacterium sp-62563 propeptide M39F (protein) NQDPNLVAKESNETAMKDFGKTVPVGIEKEDGKFKISFFVTAQPYEIKDSKENAAYISMIKTAVENETPIHVFLKANTNEIAKVDKATDDDIRYFKSVFTKEVKEENRK | 45
3 | Chryseobacterium sp-62563 propeptide M39Y (protein) NQDPNLVAKESNETAMKDFGKTVPVGIEKEDGKFKISFYVTAQPYEIKDSKENAAYISMIKTAVENETPIHVFLKANTNEIAKVDKATDDDIRYFKSVFTKEVKEENRK | > 100
4 | Chryseobacterium sp-62563 propeptide M39H (protein) NQDPNLVAKESNETAMKDFGKTVPVGIEKEDGKFKISFHVTAQPYEIKDSKENAAYISMIKTAVENETPIHVFLKANTNEIAKVDKATDDDIRYFKSVFTKEVKEENRK | > 100
5 | Chryseobacterium sp-62563 propeptide M39G (protein) NQDPNLVAKESNETAMKDFGKTVPVGIEKEDGKFKISFGVTAQPYEIKDSKENAAYISMIKTAVENETPIHVFLKANTNEIAKVDKATDDDIRYFKSVFTKEVKEENRK | > 100
6 | Chryseobacterium sp-62563 propeptide Y45L (protein) NQDPNLVAKESNETAMKDFGKTVPVGIEKEDGKFKISFMVTAQPLEIKDSKENAAYISMIKTAVENETPIHVFLKANTNEIAKVDKATDDDIRYFKSVFTKEVKEENRK | 65
7 | Chryseobacterium sp-62563 propeptide M39Q (protein) NQDPNLVAKESNETAMKDFGKTVPVGIEKEDGKFKISFQVTAQPYEIKDSKENAAYISMIKTAVENETPIHVFLKANTNEIAKVDKATDDDIRYFKSVFTKEVKEENRK | > 100
8 | Chryseobacterium sp-62563 propeptide Y56P (protein) NQDPNLVAKESNETAMKDFGKTVPVGIEKEDGKFKISFMVTAQPYEIKDSKENAAPISMIKTAVENETPIHVFLKANTNEIAKVDKATDDDIRYFKSVFTKEVKEENRK | 32

Other lines, results leading:

Row | Relative activity of maturated deamidase (% initial rate) | Binder
9 | 42 | Chryseobacterium sp-62563 propeptide S58P (protein) NQDPNLVAKESNETAMKDFGKTVPVGIEKEDGKFKISFMVTAQPYEIKDSKENAAYIPMIKTAVENETPIHVFLKANTNEIAKVDKATDDDIRYFKSVFTKEVKEENRK
10 | 95 | Chryseobacterium sp-62563 propeptide M39E (protein) NQDPNLVAKESNETAMKDFGKTVPVGIEKEDGKFKISFEVTAQPYEIKDSKENAAYISMIKTAVENETPIHVFLKANTNEIAKVDKATDDDIRYFKSVFTKEVKEENRK
11 | > 100 | Chryseobacterium sp-62563 propeptide M39S (protein) NQDPNLVAKESNETAMKDFGKTVPVGIEKEDGKFKISFSVTAQPYEIKDSKENAAYISMIKTAVENETPIHVFLKANTNEIAKVDKATDDDIRYFKSVFTKEVKEENRK
12 | > 100 | Chryseobacterium sp-62563 propeptide F38G (protein) NQDPNLVAKESNETAMKDFGKTVPVGIEKEDGKFKISGMVTAQPYEIKDSKENAAYISMIKTAVENETPIHVFLKANTNEIAKVDKATDDDIRYFKSVFTKEVKEENRK
13 | 44 | Chryseobacterium sp-62563 propeptide M39W (protein) NQDPNLVAKESNETAMKDFGKTVPVGIEKEDGKFKISFWVTAQPYEIKDSKENAAYISMIKTAVENETPIHVFLKANTNEIAKVDKATDDDIRYFKSVFTKEVKEENRK
